# Publication PMC10057511
# Molecular target: AP2α/σ2 hemicomplex, both subunits fused to the Venus C-terminal fragment and V5 (UniProt O94973)
# Assay: split reporter (BiFC, NanoBiT); HEK293 cells co-transfected with AP2α-Venus-C-V5, AP2σ2-Venus-C-V5 and Nef-HA-Venus-N (400 ng each); fixed the next day in 2% PFA; Venus fluorescence (FITC channel) read by flow cytometry as MFI
# UniProt O94973, sequence (O94973 whole entry, chain 1 of 2, the tested form may be a part): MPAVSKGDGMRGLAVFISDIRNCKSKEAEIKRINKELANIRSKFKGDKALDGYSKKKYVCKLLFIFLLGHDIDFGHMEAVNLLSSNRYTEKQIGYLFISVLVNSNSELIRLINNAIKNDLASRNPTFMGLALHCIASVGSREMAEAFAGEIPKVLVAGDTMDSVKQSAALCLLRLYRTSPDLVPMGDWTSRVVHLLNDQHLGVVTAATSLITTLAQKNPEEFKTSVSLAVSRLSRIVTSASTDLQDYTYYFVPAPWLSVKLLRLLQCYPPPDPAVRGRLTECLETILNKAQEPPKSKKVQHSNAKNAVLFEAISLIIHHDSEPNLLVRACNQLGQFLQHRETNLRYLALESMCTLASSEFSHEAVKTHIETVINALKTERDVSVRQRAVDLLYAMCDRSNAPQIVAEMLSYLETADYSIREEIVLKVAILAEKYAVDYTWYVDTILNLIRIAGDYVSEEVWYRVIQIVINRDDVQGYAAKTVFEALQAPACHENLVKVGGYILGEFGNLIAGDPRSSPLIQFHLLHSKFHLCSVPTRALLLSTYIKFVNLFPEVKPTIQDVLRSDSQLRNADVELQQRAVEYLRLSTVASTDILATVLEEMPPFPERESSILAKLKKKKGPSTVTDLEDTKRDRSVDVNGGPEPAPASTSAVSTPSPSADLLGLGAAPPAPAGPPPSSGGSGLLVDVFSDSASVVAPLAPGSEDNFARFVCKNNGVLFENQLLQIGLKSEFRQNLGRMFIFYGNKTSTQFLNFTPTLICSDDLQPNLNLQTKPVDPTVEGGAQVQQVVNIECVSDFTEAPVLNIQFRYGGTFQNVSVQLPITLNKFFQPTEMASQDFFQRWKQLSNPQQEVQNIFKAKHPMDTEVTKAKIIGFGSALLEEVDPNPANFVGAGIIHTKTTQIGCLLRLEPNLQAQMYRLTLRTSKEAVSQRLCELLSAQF
# UniProt O94973, sequence (P53680 whole entry, chain 2 of 2, further chain, the tested form may be a part): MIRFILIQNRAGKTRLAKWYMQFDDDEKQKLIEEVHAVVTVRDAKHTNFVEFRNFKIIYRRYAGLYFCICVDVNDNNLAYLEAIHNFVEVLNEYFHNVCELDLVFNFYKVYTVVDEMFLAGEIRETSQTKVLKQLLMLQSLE
substance,measurement,value
Nef protein from the LAI isolate lacking the leucine-based sorting motif (LL/AA) fused to HA and the N-terminal fragment of Venus (from UniProt P03406 1-206) (natural protein),decrease of BiFC fluorescence against Nef^LAI,50%
